In publication PMC12678787, “Insects evolved a monomeric histone-fold domain in the CENP-T protein family”:
Changes are numbered by the printed parent chain.

Assays:
bmCENP-T patch 1 mutant = target: T1, bmCENP-T patch 1 mutant (Bombyx mori, UniProt A0A8R2HRP3 894-1016, K895A;R896A;K907A;R908S;K911A); assay: EMSA; 100 mM NaCl; EMSA: 100 mM NaCl, 4 °C 30 min, 300 ng DNA, 8% glycerol, 5% native PAGE, GelRed stain; protein stock in 10 mM HEPES pH 7.5, 500 mM NaCl; binding buffer and pH not stated; conditions: protein: recombinant; tags: GST tag cleaved with HRV 3C; blunt
T1 sequence: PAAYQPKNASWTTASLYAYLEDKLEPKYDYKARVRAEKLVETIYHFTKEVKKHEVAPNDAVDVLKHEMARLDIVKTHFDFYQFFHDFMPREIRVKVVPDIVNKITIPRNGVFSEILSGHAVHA

bmCENP-T patch 2 mutant = target: T2, bmCENP-T patch 2 mutant (Bombyx mori, UniProt A0A8R2HRP3 894-1016, R928S;R963S); assay: EMSA; 100 mM NaCl; no effect of mutation; EMSA: 100 mM NaCl, 4 °C 30 min, 300 ng DNA, 8% glycerol, 5% native PAGE, GelRed stain; protein stock in 10 mM HEPES pH 7.5, 500 mM NaCl; binding buffer and pH not stated; conditions: protein: recombinant; tags: GST tag cleaved with HRV 3C; blunt
T2 sequence: T1 sequence with A2K, A3R, A14K, S15R, A18K, R35S, R70S

bmCENP-T HFD WT = target: T3, bmCENP-T HFD WT (Bombyx mori, UniProt A0A8R2HRP3 894-1016); assay: EMSA; 100 mM NaCl; maximum complex at 5x molar excess of protein; EMSA: 100 mM NaCl, 4 °C 30 min, 300 ng DNA, 8% glycerol, 5% native PAGE, GelRed stain; protein stock in 10 mM HEPES pH 7.5, 500 mM NaCl; binding buffer and pH not stated; conditions: protein: recombinant; tags: GST tag cleaved with HRV 3C (vector-derived N-terminal residues may remain); blunt
T3 sequence: T1 sequence with A2K, A3R, A14K, S15R, A18K

B1: 12 bp DNA (AA357/AA358) (dsDNA)
DNA 1: TAGACAGCTCTA
DNA 2: TAGAGCTGTCTA
binding result (bmCENP-T patch 1 mutant): no binding | binding result (bmCENP-T patch 2 mutant): binds | binding result (bmCENP-T HFD WT): binds
